The source of these data is patent US20200138866A1 (XYPHOS BIOSCIENCES, published 2020).

The target of this assay is T1, Fc-NKG2D.Y152A (human).
T1 construct: also called NKG2D.YA; Fc-NKG2D.YA
Kind of assay: ELISA and Octet.

T1 sequence (chain, as listed by the source Y152A Y152A limits assumed): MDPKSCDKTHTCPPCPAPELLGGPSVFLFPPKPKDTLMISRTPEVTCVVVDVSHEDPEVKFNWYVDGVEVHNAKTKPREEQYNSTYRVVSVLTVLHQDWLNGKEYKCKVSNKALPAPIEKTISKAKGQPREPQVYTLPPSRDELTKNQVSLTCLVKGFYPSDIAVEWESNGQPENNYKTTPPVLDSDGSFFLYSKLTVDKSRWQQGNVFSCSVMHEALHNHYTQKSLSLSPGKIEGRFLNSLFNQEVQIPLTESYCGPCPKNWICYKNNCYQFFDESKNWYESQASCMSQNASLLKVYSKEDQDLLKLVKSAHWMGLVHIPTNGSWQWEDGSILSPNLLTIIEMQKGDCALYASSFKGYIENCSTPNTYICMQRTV

B1: rituximab-ULBP2.S3 MicAbody (bispecific antibody, human IgG1, kappa)
heavy: not shown
light: QIVLSQSPAILSASPGEKVTMTCRASSSVSYIHWFQQKPGSSPKPWIYATSNLASGVPVRFSGSGSGTSYSLTISRVEAEDAATYYCQQWTSNPPTFGGGTKLEIKRTVAAPSVFIFPPSDEQLKSGTASVVCLLNNFYPREAKVQWKVDNALQSGNSQESVTEQDSKDSTYSLSSTLTLSKADYEKHKVYACEVTHQGLSSPVTKSFNRGECAPTSSSGGGGSEPHSLSYDITVIPKFRPGPRWCAVQGQVDEKTFLHYDCGNKTVTPVSPLGKKLNVTTAWKAQNPVLREVVDILTEQLWDIQLENYTPKEPLTLQARMSCEQKAEGHSSGSWQFSFDGQIFLLFDSEKRMWTTVHPGARKMKEKWENDKVVATKLYLWSMGDCIGWLEDFLMGMDSTLEPS
notes: also called ULPB2.S3; U2S3 MicAbody
On to B1, for which the binding result was “binds”.
